{"source": "patent US20150111231A1", "binders": {"B1": {"name": "anti-internal structure antibody 5H10 (antibody, IgG1, V domains shown)", "VH": "QVQLQQSGTELAKPGASVKMSCKASGYTFIDYWMHWIKQSPGQGLEWIGFINPRSGSTTYNQKFRDKATLTVDTSSSTAYMQLTSLTSEDSAVYYCTRPDFDYFDYWGQGTTLTVSS", "VL": "DVLMTQTPLSLPVSLGDHASISCRSSQSIVQSNGNTYLEWYLQKPGQSPKLLIYKVSNRFSGVPDRFSGSGSGTDFTLKISSVEAEDLGIYYCFQASHVPLTFGAGTKLELKR"}}, "key": {"[1]": {"biological_target": "human sAPPβ (MESO SCALE DISCOVERY) (human) (UniProt P05067)", "sequence (P05067 18-671)": "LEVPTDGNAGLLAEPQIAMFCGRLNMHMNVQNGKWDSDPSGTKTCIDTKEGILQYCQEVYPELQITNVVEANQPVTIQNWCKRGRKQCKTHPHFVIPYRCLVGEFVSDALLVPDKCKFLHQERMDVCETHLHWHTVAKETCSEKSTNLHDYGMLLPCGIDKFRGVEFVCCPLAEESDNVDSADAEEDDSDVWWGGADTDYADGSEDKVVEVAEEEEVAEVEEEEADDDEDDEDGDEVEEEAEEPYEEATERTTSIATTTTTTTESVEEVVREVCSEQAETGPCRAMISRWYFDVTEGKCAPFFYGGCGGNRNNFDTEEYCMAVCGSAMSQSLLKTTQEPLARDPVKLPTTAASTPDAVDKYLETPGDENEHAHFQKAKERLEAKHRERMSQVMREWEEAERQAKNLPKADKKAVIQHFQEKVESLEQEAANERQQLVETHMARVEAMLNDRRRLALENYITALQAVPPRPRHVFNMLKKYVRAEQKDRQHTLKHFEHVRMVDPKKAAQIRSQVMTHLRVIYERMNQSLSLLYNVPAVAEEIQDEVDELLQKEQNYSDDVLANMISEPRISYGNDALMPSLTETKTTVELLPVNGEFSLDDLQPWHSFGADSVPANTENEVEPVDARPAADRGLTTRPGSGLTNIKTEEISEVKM", "assay": "SPR (ProteOn, GLM chip), 5H10 immobilised, sAPPβ as analyte"}, "[2]": {"biological_target": "human sAPPβ (MESO SCALE DISCOVERY) (human) (UniProt P05067)", "assay": "SPR (ProteOn), 5H10 immobilized on GLM chip, sAPPβ as analyte at 1000, 250, 62.5, 15.6, 3.91 nM"}}}
{"binder": "B1", "values": [{"measurement": "koff", "setting": "[1]", "result": "5.62e-05", "unit": "s⁻¹"}, {"measurement": "kon", "setting": "[1]", "result": 90800, "unit": "M⁻¹ s⁻¹"}, {"measurement": "Kd", "setting": "[2]", "result": 0.62, "unit": "nM"}]}
